Source: patent publication US20250171806A1 (BROAD INSTITUTE, published 2025)

Legend:
Assay in all cases: co-immunoprecipitation from HEK293 lysate: Flag IP of NS3, HA Western blot
[1] = molecular target: T1, HA-tagged Galleria mellonella (Gm) densovirus capsid protein VP4 (Galleria mellonella (Gm) densovirus, UniProt Q90125 375-811)
T1 construct: also called Gm VP4; GmDNV capsid VP protein 4
T1 sequence: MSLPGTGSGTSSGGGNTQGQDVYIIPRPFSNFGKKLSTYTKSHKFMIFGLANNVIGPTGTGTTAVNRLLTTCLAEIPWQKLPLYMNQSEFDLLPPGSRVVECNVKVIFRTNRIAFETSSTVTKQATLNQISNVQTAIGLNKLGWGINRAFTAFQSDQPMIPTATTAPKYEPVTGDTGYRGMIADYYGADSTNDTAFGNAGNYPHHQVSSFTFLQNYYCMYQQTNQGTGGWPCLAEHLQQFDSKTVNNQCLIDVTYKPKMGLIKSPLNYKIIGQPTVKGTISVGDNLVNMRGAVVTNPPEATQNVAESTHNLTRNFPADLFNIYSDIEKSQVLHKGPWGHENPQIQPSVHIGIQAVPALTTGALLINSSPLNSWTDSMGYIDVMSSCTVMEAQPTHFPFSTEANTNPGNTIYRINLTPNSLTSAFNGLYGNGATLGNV

[2] = molecular target: T2, HA-tagged Galleria mellonella (Gm) densovirus capsid protein VP3 (Galleria mellonella (Gm) densovirus, UniProt Q90125 324-811)
T2 construct: also called Gm VP3; GmDNV capsid VP protein 3
T2 sequence: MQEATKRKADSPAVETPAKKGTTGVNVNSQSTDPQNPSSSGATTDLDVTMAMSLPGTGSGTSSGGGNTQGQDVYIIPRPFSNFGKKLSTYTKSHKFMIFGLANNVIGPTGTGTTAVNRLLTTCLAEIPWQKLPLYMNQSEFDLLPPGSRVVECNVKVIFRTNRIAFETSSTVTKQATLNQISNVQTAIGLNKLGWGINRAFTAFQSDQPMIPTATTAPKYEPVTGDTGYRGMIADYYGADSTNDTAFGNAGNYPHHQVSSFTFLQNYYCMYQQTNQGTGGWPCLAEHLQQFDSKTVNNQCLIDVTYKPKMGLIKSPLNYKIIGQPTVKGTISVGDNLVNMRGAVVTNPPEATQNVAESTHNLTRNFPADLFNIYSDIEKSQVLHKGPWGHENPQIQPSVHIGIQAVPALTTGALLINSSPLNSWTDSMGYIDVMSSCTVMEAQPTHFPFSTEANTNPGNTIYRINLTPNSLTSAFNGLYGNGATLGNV

[3] = molecular target: T3, HA-tagged Galleria mellonella (Gm) densovirus capsid protein VP1 (Galleria mellonella (Gm) densovirus, UniProt Q90125 1-811)
T3 construct: also called Gm VP1; GmDNV capsid VP protein 1
T3 sequence: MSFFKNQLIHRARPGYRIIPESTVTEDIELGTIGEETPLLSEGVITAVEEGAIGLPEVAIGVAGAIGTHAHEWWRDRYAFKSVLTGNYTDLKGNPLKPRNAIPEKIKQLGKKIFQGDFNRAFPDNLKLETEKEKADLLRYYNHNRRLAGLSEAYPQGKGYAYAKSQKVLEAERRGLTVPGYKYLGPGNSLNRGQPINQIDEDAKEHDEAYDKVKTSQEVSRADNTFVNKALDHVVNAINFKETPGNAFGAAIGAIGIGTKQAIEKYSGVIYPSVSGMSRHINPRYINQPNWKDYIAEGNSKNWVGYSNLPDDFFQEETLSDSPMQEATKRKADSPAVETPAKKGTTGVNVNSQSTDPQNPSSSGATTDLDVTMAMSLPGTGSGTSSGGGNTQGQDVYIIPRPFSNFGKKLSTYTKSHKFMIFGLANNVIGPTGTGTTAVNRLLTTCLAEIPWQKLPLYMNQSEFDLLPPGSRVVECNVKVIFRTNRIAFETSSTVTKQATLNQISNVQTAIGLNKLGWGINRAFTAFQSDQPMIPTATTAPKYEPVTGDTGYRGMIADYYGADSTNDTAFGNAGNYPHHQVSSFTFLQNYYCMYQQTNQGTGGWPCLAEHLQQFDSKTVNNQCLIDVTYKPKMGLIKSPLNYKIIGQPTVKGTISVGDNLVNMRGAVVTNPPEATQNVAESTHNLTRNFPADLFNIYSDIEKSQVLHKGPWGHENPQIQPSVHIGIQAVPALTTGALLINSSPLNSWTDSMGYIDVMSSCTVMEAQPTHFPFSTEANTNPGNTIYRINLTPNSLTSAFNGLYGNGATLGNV

[4] = molecular target: T4, HA-tagged Galleria mellonella (Gm) densovirus capsid protein VP2 (Galleria mellonella (Gm) densovirus, UniProt Q90125 277-811)
T4 construct: also called Gm VP2; GmDNV capsid VP protein 2
T4 sequence: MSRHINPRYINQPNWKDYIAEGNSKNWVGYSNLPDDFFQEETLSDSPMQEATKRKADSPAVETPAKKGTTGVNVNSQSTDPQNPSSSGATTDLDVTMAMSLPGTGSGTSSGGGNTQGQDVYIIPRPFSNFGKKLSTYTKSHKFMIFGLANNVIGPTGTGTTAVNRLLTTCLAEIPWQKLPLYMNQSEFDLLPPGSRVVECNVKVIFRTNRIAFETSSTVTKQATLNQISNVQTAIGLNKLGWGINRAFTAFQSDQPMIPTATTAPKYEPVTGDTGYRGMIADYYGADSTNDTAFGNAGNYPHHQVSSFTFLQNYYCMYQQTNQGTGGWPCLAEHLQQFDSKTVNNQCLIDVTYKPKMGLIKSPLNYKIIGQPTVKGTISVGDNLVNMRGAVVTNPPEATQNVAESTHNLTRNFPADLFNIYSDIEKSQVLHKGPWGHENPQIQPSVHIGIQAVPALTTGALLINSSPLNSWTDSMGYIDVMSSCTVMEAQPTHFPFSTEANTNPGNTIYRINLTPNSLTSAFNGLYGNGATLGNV

Measured: binding result

B1: Flag-tagged Galleria mellonella (Gm) densovirus nonstructural protein NS3 (other)
chain: MSIAKFLYVRRLFEKVYNPKSLFYEAYKCARLNGLDMSILPKPILNMSHDMDTQIIACGEDINHTLAIEELEHWDWSKQNRLPFQLYLAVMNLTEIPEWLDETMLIECVYYFKELINHRDPYDTDELNTWNANGKPFKTMWKICKFCYNNCEDPDDYRFIYNRTVFVEDVEEIITRLQDSDSWCQLCHTCPLFNISAIYDNSPNNKQRRYSSSDDDDYMSNSFFVKHPNSRH
notes: also called Gm NS3; GmNS3; not shown: Flag tag, at either the N or the C terminus
binds: [1] | [2] | [3] | [4]

B2: Gm NS3 with C-terminal Flag tag (other)
chain: MSIAKFLYVRRLFEKVYNPKSLFYEAYKCARLNGLDMSILPKPILNMSHDMDTQIIACGEDINHTLAIEELEHWDWSKQNRLPFQLYLAVMNLTEIPEWLDETMLIECVYYFKELINHRDPYDTDELNTWNANGKPFKTMWKICKFCYNNCEDPDDYRFIYNRTVFVEDVEEIITRLQDSDSWCQLCHTCPLFNISAIYDNSPNNKQRRYSSSDDDDYMSNSFFVKHPNSRH
notes: also called NS3 when the Flag tag was present on the C-terminus; not shown: C-terminal Flag tag
binds: [1] | [2] | [3] | [4]
